Experimental data: patent US20110300138A1 (published 2011)

Experiments:
[1] = target: TSHR (full length) coated on tubes (human) (UniProt P16473); assay: inhibition of 125I-K1-18 Fab (competitor) binding to TSHR coated tubes; test sample 100 µg/mL in HBD serum
[2] = target: TSH receptor (full length human TSHR) (human) (UniProt P16473); assay: competition ELISA: inhibition of M22 Fab-peroxidase (competitor) binding to TSHR coated wells; test sample at 10 µg/mL diluted in HBD serum pool
[3] = target: TSHR with Asp160 mutated to Lys, expressed in CHO cells (human) (UniProt P16473); assay: cell-based or functional assay
[4] = target: TSH receptor (TSHR) coated on tubes (human) (UniProt P16473); assay: inhibition of 125I-K1-70 IgG binding to TSHR coated tubes; negative control 0.01 µg/mL in HBD serum pool

| Inhibition of binding (%) [1] [%] | Inhibition of binding (%) [2] [%] | % inhibition of TSH stimulation (stimulator given as M22), mutated TSHR; 5B3 10 µg/mL [3] [%] | % inhibition of TSH stimulation (stimulator given as M22), mutated TSHR; 5B3 100 µg/mL [3] [%] | Mutated/wild type (%) of cyclic AMP produced; test sample: 5B3 10 µg/mL + M22 [3] [%] | Mutated/wild type (%) of cyclic AMP produced; test sample: 5B3 100 µg/mL + M22 [3] [%] | Inhibition of binding (%) [4] [%] | Substance |
| --- | --- | --- | --- | --- | --- | --- | --- |
| 77.3 | 66.7 |  |  |  |  |  | 9D33 IgG (antibody) |
|  |  | 0 | 11 | 69 | 60 | 3.2 | 5B3 IgG (antibody) |
